Data from publication PMC7413564, “Phase separation of Arabidopsis EMB1579 controls transcription, mRNA splicing, and development” (PLoS Biology, 2020).

T1: Oregon Green-labeled EMB1579 (Arabidopsis thaliana, UniProt F4IS91-1 1-1340, Oregon Green label (site not stated))
T1 construct: full-length CDS amplified from seedling cDNA; phase-separated in F-buffer in the assay; also called Oregon Green-EMB1579; EMB1579 condensates; source: Sf9 insect cells (pFastBac1-EMB1579), purified (Ni-NTA, SuperDex 200 Increase), labelled with Oregon Green
T1 sequence (looked up): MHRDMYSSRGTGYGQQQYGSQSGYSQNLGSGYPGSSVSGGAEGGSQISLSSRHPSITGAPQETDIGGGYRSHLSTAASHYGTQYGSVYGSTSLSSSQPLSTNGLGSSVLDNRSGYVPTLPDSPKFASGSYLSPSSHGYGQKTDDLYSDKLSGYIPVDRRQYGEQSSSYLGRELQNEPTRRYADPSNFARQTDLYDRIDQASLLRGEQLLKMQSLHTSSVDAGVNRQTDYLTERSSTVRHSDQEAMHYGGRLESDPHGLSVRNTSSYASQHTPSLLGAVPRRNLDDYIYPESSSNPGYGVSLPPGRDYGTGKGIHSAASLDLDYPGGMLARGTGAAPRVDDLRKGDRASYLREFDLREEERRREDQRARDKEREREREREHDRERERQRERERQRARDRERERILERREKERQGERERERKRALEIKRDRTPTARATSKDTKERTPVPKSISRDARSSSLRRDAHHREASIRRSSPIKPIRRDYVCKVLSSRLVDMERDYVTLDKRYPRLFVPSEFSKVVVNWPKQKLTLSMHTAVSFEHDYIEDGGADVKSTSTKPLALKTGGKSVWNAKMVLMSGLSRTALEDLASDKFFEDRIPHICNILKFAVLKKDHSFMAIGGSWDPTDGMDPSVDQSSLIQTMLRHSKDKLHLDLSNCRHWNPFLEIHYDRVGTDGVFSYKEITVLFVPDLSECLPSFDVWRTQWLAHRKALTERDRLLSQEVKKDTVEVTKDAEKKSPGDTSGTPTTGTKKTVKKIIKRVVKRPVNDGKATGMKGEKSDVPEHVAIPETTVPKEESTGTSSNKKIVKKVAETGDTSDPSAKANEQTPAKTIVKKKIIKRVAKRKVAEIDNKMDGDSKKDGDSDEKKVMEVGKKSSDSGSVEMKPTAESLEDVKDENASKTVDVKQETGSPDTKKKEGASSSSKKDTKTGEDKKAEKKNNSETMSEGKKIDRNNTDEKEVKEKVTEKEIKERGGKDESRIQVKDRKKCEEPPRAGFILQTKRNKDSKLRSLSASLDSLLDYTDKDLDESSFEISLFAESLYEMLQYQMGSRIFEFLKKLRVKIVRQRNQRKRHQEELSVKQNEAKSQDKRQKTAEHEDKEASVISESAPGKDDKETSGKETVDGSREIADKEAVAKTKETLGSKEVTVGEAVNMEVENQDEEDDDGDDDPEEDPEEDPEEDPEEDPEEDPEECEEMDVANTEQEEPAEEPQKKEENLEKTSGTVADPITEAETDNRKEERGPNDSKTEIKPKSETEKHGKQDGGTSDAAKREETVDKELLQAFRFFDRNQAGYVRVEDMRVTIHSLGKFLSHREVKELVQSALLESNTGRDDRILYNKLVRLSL

B1: mCherry-MSI4 (natural protein, Arabidopsis thaliana, UniProt O22607 1-507, looked up)
chain: MESDEAAAVSPQATTPSGGTGASGPKKRGRKPKTKEDSQTPSSQQQSDVKMKESGKKTQQSPSVDEKYSQWKGLVPILYDWLANHNLVWPSLSCRWGPQLEQATYKNRQRLYLSEQTDGSVPNTLVIANCEVVKPRVAAAEHISQFNEEARSPFVKKYKTIIHPGEVNRIRELPQNSKIVATHTDSPDVLIWDVETQPNRHAVLGAANSRPDLILTGHQDNAEFALAMCPTEPFVLSGGKDKSVVLWSIQDHITTIGTDSKSSGSIIKQTGEGTDKNESPTVGPRGVYHGHEDTVEDVAFSPTSAQEFCSVGDDSCLILWDARTGTNPVTKVEKAHDADLHCVDWNPHDDNLILTGSADNTVRLFDRRKLTANGVGSPIYKFEGHKAAVLCVQWSPDKSSVFGSSAEDGLLNIWDYDRVSKKSDRAAKSPAGLFFQHAGHRDKVVDFHWNASDPWTIVSVSDDCETTGGGGTLQIWRMSDLIYRPEEEVVAELEKFKSHVMTCASKP
notes: MSI4, Arabidopsis; amplified with MSI4-SalI-F/MSI4-XbaI-R2 from pEZS-NL-RFP-MSI4 and moved into pColdI-mCherry; also called recombinant MSI4 protein; source: E. coli BL21 (DE3) (pColdI-mCherry-MSI4), purified (Ni-NTA); not shown: mCherry, N-terminal, kept
B2: mCherry-DDB1B (natural protein, Arabidopsis thaliana, UniProt O49552 1-1088, looked up)
chain: MSVWNYAVTAQKPTCVTHSCVGNFTSPQELNLIVAKSTRIEIHLLSPQGLQTILDVPLYGRIATMELFRPHGEAQDFLFVATERYKFCVLQWDYESSELITRAMGDVSDRIGRPTDNGQIGIIDPDCRVIGLHLYDGLFKVIPFDNKGQLKEAFNIRLEELQVLDIKFLYGCTKPTIAVLYQDNKDARHVKTYEVSLKDKNFVEGPWSQNNLDNGADLLIPVPSPLCGVLIIGEETIVYCSANAFKAIPIRPSITKAYGRVDLDGSRYLLGDHAGLIHLLVITHEKEKVTGLKIELLGETSIASSISYLDNAVVFVGSSYGDSQLIKLNLQPDAKGSYVEILEKYVNLGPIVDFCVVDLERQGQGQVVTCSGAYKDGSLRIVRNGIGINEQASVELQGIKGMWSLKSSIDEAFDTFLVVSFISETRILAMNIEDELEETEIEGFLSEVQTLFCHDAVYNQLVQVTSNSVRLVSSTTRELRNKWDAPAGFSVNVATANASQVLLATGGGHLVYLEIGDGTLTEVKHVLLEYEVSCLDINPIGDNPNYSQLAAVGMWTDISVRIFVLPDLTLITKEELGGEIIPRSVLLCAFEGISYLLCALGDGHLLNFQLDTSCGKLRDRKKVSLGTRPITLRTFSSKSATHVFAASDRPAVIYSNNKKLLYSNVNLKEVSHMCPFNSAAFPDSLAIAREGELTIGTIDDIQKLHIRTIPIGEHARRICHQEQTRTFAISCLRNEPSAEESESHFVRLLDAQSFEFLSSYPLDAFECGCSILSCSFTDDKNVYYCVGTAYVLPEENEPTKGRILVFIVEEGRLQLITEKETKGAVYSLNAFNGKLLASINQKIQLYKWMLRDDGTRELQSECGHHGHILALYVQTRGDFIAVGDLMKSISLLIYKHEEGAIEERARDYNANWMTAVEILNDDIYLGTDNCFNIFTVKKNNEGATDEERARMEVVGEYHIGEFVNRFRHGSLVMKLPDSDIGQIPTVIFGTVSGMIGVIASLPQEQYAFLEKLQTSLRKVIKGVGGLSHEQWRSFNNEKRTAEAKGYLDGDLIESFLDLSRGKMEEISKGMDVQVEELCKRVEELTRLH
notes: DDB1B, Arabidopsis; amplified with DDB1B-EcoRI-F/DDB1B-SalI-R2 from pFGC5941-DDB1B-RFP and moved into pColdI behind mCherry; source: E. coli BL21 (DE3) (pColdI-mCherry-DDB1B), purified (Ni-NTA); not shown: mCherry, N-terminal, kept

Molecular target: T1, Oregon Green-labeled EMB1579
Assay: recruitment into condensates in vitro (confocal fluorescence microscopy); Oregon Green-labeled EMB1579 (2.5 μM) with mCherry-DDB1B (500 nM) or mCherry-MSI4 (20 nM) in F-buffer (25 mM Hepes pH 8.0, 100 mM KCl, 100 mg/ml PEG 3350), 5 minutes, room temperature
Settings: both partners purified

Binder	binding result
B1	binds
B2	binds
